Key:
Jurkat T cells [1] = test: hGal-7-induced apoptosis of Jurkat T cells, Annexin V/PI flow cytometry; format: cell-based; settings: 4 h at 37° C., FIGS. 5B and 5C
Experimental: (§1) Apoptosis assays with Annexin V/PI staining. Apoptosis was measured by flow cytometry using FITC-labeled Annexin V (Biolegend®, San Diego, Calif., USA) and propidium iodide. Briefly, the corresponding dilutions of recombinant hGal-7 and hGal-7(129-135) peptides were pre-incubated for 1 h at 4° C. in serum-free RPMI 1640 medium. 2.5×10^5 Jurkat cells were then harvested in the same medium and incubated with their corresponding dilutions at 37° C. for 4 h. Cells were washed once in PBS and once in binding buffer (0.01 M HEPES, 0.14 M NaCl, 2.5 mM CaCl2, pH 7.4). Cells were then incubated for 15 min with Annexin V in the dark at room temperature. A total of 400 μL of binding buffer containing 0.25 μg/mL propidium iodide was added to the cells before analysis by flow cytometry.
It was thus tested whether hGal-7(129-135) could modulate the binding of hGal-7 on Jurkat T cells, a cell model that is commonly used to test the pro-apoptotic activity of galectins. For this purpose, recombinant hGal-7 was labeled with fluorescein isothiocyante (FITC) and its binding on the surface of Jurkat T cells was measured by flow cytometry in absence or presence of increasing concentrations of hGal-7(129-135). […] The effect of hGal-7(129-135) was specific, statistically significant (FIG. 4B), and consistent with the increased number of monomers, which bind to surface glycosylated receptors through their CRDs. […]

Jurkat T cells [2] = test: Apoptosis/toxicity of peptide alone in Jurkat T cells, Annexin V/PI; format: cell-based
Experimental: FIG. 8A: Flow cytometry histogram showing propidium iodide (PI) (FL3) labeling of Jurkat T cells without or with 200 μM of hGal-7(129-135). FIG. 8B: Histogram showing the average percentage of Annexin-V (AV) positive Jurkat T cells in the presence of increasing concentrations of […]. FIG. 8C: Flow cytometry histogram showing PI (FL3) labeling of Jurkat T cells without or with 200 μM of PACAP28-38 FIG. 8D: Histogram showing the average percentage of AV-positive Jurkat T cells in the presence of increasing concentrations of PACAP28-38. The percentage of cell death was obtained as described above. Error bars represent standard deviation. Significance was calculated with respect to AF samples. Results are representative of three independent experiments.
as §1

## H-Leu-Asp-Ser-Val-Arg-Ile-Phe-NH2 (H-LDSVRIF-NH2; listed as Homo sapiens) [hGal-7(129-135), peptide corresponding to residues 129-135 of hGal-7]
Jurkat T cells [1]
  inhibition of hGal-7-induced apoptosis, Annexin V/PI staining: confirmed
Jurkat T cells [2]; PI labeling at 200 μM, Annexin V at increasing concentrations, FIGS. 8A to 8D
  toxicity in Jurkat T cells: do not induce toxicity in Jurkat T cells
Jurkat T cells [2]; peptide alone, FIG. 8
  induction of apoptosis by peptide alone: did not induce apoptosis in Jurkat T cells

Source: patent US11319374B2, “Inhibitors of prototypic galectin dimerization and uses thereof” (INSTITUT NATIONAL DE LA RECHERCHE SCIENTIFIQUE, priority 2015, dated 2022)
